Experimental data published in patent US20250179195A1.

B1: Fab fragment of antibody 17566 (Fab, V domains shown)
VH: QVTLKESGPVLVKPTETLTLTCTVSGFSFNNARMGVNWIRQPPGKALEWLAHIFSNDEKSYSTSLKSRLTISKDISKSQVVLTMTNMDPVDTATYYCARIVGYGSGWRLLGDYWGQGTLVTVSS
VL: AIQMTQSPSSLSASVGDRVTITCRASQGITNDLGWYQQKPGKAPKLLIYAASSLQSGVPSRFSGSGSGTDFTLTISSLQPEDFATYYCLQDYNYPWTFGQGTKVEIK
B2: Fab fragment of antibody 17543 (Fab, V domains shown)
VH: QVTLKESGPVLVKPTETLTLTCTVSGFSLINARMGVTWIRQPPGKALEWLAHIFSNDEKSYSTSLKSRLTISKDTSKSQVVLTMTNMDPVDTATYYCARIPGYSRGWDYYYYGMDVWGQGTMVTVSS
VL: DIQMTQSPSSLSASVGDRVTITCRASQGIRNDLGWYQQKPGKAPKRLIYAASTLQSGVPSRFSGSGSGTEFTLTISSLQPEDFATYYCLQHNSYPWTFGQGTKVEIK
B3: Fab fragment of antibody 17497 (Fab, V domains shown)
VH: QVQLQESGPGLVKPSGTLSLTCAVSGGSISSTNWWSWVRQPPGKGLEWIGEISHRGSTNYNPSLKSRVTISVDKSKNQFSLKLSSVTAADTAVYYCARDPEMTLYYYYGMDVWGQGTTVTVSS
VL: DIQMTQSPSSLSASVGDRVTITCRASRGIRNDLGWYQQKPGKAPKRLIYAASSLQSGVPSRFSGSGSGTEFTLTISSLQPEDFATYYCLQHNSYPLTFGGGTKVEIK

What follows are binders tested against human FLT3 domain 1 Fc fusion protein (wild type) (human) (UniProt P36888) (assay: SPR (Carterra LSA); FLT3 D1-Fc captured on anti-human Ig Fc, Fab as analyte; mean ± SEM, n=4).
Work on B1 yielded a Kd of 5.2 nM, a koff of 0.0046 s⁻¹ and a kon of 890000 M⁻¹ s⁻¹. B2 gave a Kd of 19.3 nM, a koff of 0.0099 s⁻¹ and a kon of 520000 M⁻¹ s⁻¹. B3 gave a Kd of 3.1 nM, a koff of 0.003 s⁻¹ and a kon of 980000 M⁻¹ s⁻¹.
